# Assay results reported in patent US20240228647A1, “OFATUMUMAB FOR TREATING MULTIPLE SCLEROSIS IN ASIAN PATIENTS” (Novartis AG, priority 2021, published 2024).
# Where two headings read alike, the source gives them in different places.
# Tests used:
# [1] = system: serum IgG and IgM levels; test: Serum IgG and IgM levels under long-term ofatumumab treatment; assay type: in vivo, human
# Experimental: Serum immunoglobulin (Ig) levels can be determined routinely in clinical practice. In the present application serum Ig levels can preferably be determined by immunoturbidimetry. Preferably a Roche cobas® Analyzer was used, especially module c of the cobas® analyser. In a preferred embodiment Ig levels can be determined by using a cobas® c 311 analyzer. It is further preferred that IgG measurements are carried out as described in the cobas® leaflet “IGG-2 Tina-quant IgG Gen.2”, preferably version 11.0 dated 2016-02 and IgM measurements as described in the leaflet “IGM-2 Tina-quant IgM Gen.2”, preferably version 13.0 dated 2018-11.
# Serum samples were preferably kept at 2-8° C. before measurement.
# Patients were subjected to a long term treatment. Patients received ofatumumab 20 mg sc injections every 4 weeks (after an initial loading regimen of 20 mg sc doses on weeks 0, 1 and 2).
# [2] = system: patients with RMS; assay type: in vivo, human
# Experimental: Ofatumumab was investigated in 1882 patients with RMS from two identical Phase III randomized, double-blind, double-dummy, active-comparator controlled, parallel-group, multicenter studies of identical design (Study I and Study II). Patients were randomized to receive either ofatumumab, OMB (20 mg s.c injections every 4 weeks, after an initial loading regimen of 3 injections on Day 1, 7, and 14), or teriflunomide, TER (14 mg p.o. once a day) as active comparator. For brevity, the teriflunomide data are not shown hereinafter.
# The maximum treatment duration for an individual patient was 30 study months (approximately 2.5 years). The two studies included a total of 71 patients of Asian race (36 patients in ofatumumab and 35 patients in teriflunomide treatment groups). This Example also includes the Asian patients data from oncology studies (Study A and Study B), as supportive data, where required.
# For the safety analyses of this report, non-serious treatment emergent adverse events (TEAEs) up to and including safety cut-off (i.e. 100 days after last study drug administration) and serious TEAEs regardless of the safety cutoff were considered (if reported prior to the data cut-off of Studies I and II). Common terminology criteria for adverse events (CTCAE) grading was used to record the severity of each AE. The latest version of CTCAE available at the time of TEAE reporting was used. […] The three most frequently reported AEs by SOC were ‘General disorders and administration site conditions’ ‘Infections and infestations’ and ‘Injury, poisoning and procedural complications’ in the Asian and ROW subgroups by race (Table 7). […] In the Asian subgroup, 1 patient experienced SAEs of urinary tract infections, urosepsis and testicular infarction in the ofatumumab group and 1 patient reported an SAE of nephrolithiasis in the teriflunomide group (Table 8). Due to the small number of Asian patients by race and region, results should be interpreted with caution.
# AEs of special interest were summarized by risk name, PT and treatment. Furthermore, the incidence of any AE that fulfilled the search terms as defined in eCRS were summarized by risk name, level, and maximum CTCAE grade. In this section, AESIs are first described for subgroups by race and then by region. […] The definitions of AEs of special interest correspond to the identified or potential risks for ofatumumab and its class of drug as well as those for the comparator (teriflunomide). AESIs, based on the safety profiles of ofatumumab, comparator, and other anti-CD20 mABs are: • Injection-related reactions including injection-systemic reaction and injection-site • reactions • Infections, including opportunistic infections, HBV infection reactivation and PML • Malignant and premalignant disorders • Hepatic Safety • Neutropenia
substance,measurement,setting,value
ofatumumab [OMB],IgM levels with longer duration,"[1]; 20 mg sc every 4 weeks, FIGS. 3 and 4",A reduction in IgM levels
same,IgG levels over the long-term follow-up,"[1]; 20 mg sc every 4 weeks, follow-up of >4 years, FIG. 1",stable
same,IgM levels versus lower limit of normal,"[1]; 20 mg sc every 4 weeks, longer duration, FIGS. 3 and 4",levels remained above the lower limit of normal
same,Increase of IgG levels,"[1]; after two years (96 weeks), FIG. 6",about 3%
same,"TEAE: Gastrointestinal disorders, %",[2]; Asian (race),(11.1) %
same,"TEAE: Nervous system disorders, %",[2]; Asian (race),(11.1) %
same,"TEAE: Reproductive system and breast disorders, %",[2]; Asian (race),(11.1) %
same,"AESI: Injection-site reaction (any reaction), %",[2]; Rest of World (race),(11.1) %
same,"AE by PT: alopecia, %",[2]; in vivo,5.7%
same,"AE by PT: alopecia, patients",[2]; in vivo,52
same,"AE by PT: nasopharyngitis, %",[2]; in vivo,18.5%
same,"AE by PT: nasopharyngitis, patients",[2]; in vivo,168
same,"AE by PT: pyrexia, %",[2]; in vivo,33.3%
same,"AE by PT: pyrexia, patients",[2]; in vivo,12
same,"AE by PT: upper respiratory tract infection, %",[2]; in vivo,11.1%
same,"AE by PT: upper respiratory tract infection, patients",[2]; in vivo,4
same,"AESI Neutropenia, %",[2]; in vivo,(1.0) %
same,"AESI: Drug abuse and dependence, %",[2]; in vivo,0.1%
same,"AESI: Drug abuse and dependence, number of events [E]",[2]; in vivo,1
same,"AESI: Herpes viral infections, %",[2]; in vivo,5.1%
same,"AESI: Herpes viral infections, number of events [E]",[2]; in vivo,61
same,"AESI: Injection-site reaction (any reaction), %",[2]; in vivo,(2.8) %
same,"AESI: Lower Respiratory tract Infections, %",[2]; in vivo,3.3%
same,"AESI: Lower Respiratory tract Infections, number of events [E]",[2]; in vivo,31
same,"AESI: Neoplasms, %",[2]; in vivo,2.6%
same,"AESI: Neoplasms, number of events [E]",[2]; in vivo,28
same,"AESI: Neutropenia, %",[2]; in vivo,1.0%
same,"AESI: Neutropenia, number of events [E]",[2]; in vivo,13
same,"AESI: Opportunistic infections, %",[2]; in vivo,0.1%
same,"AESI: Opportunistic infections, number of events [E]",[2]; in vivo,1
same,"AESI: Pregnancy, %",[2]; in vivo,0.1%
same,"AESI: Pregnancy, number of events [E]",[2]; in vivo,1
same,"AESI: Premalignant disorders, %",[2]; in vivo,0.8%
same,"AESI: Premalignant disorders, number of events [E]",[2]; in vivo,9
same,"AESI: Risk of malignancy, %",[2]; in vivo,0.5%
same,"AESI: Risk of malignancy, number of events [E]",[2]; in vivo,5
same,"AESI: Suicidal Ideation and Behavior, %",[2]; in vivo,0.9%
same,"AESI: Suicidal Ideation and Behavior, number of events [E]",[2]; in vivo,9
same,"AESI: Urinary tract infection, number of events [E]",[2]; in vivo,4
same,"AESI: Varicella-Zoster virus infections, %",[2]; in vivo,2.0%
same,"AESI: Varicella-Zoster virus infections, number of events [E]",[2]; in vivo,19
same,"Drug abuse and dependence, %",[2]; in vivo,(0.1) %
same,"Pregnancy, %",[2]; in vivo,(0.1) %
same,"SAE by PT: Appendicitis, %",[2]; in vivo,0.9%
same,"SAE by PT: Appendicitis, patients",[2]; in vivo,8
same,"Serious TEAE: Blood and lymphatic system disorders, %",[2]; in vivo,(0.2) %
same,"Serious TEAE: Cardiac disorders, %",[2]; in vivo,(0.3) %
same,"Serious TEAE: Ear and labyrinth disorders, %",[2]; in vivo,(0.3) %
same,"Serious TEAE: Gastrointestinal disorders, %",[2]; in vivo,(0.9) %
same,"Serious TEAE: General disorders and administration site conditions, %",[2]; in vivo,(0.3) %
same,"Serious TEAE: Hepatobiliary disorders, %",[2]; in vivo,(0.5) %
same,"Serious TEAE: Immune system disorders, %",[2]; in vivo,(0.1) %
same,"Serious TEAE: Injury, poisoning and procedural complications, %",[2]; in vivo,(1.4%
same,"Serious TEAE: Investigations, %",[2]; in vivo,(0.2) %
same,"Serious TEAE: Musculoskeletal and connective tissue disorders, %",[2]; in vivo,(0.9) %
same,"Serious TEAE: Neoplasms benign, malignant and unspecified (incl cysts and polyps), %",[2]; in vivo,(1.0) %
same,"Serious TEAE: Nervous system disorders, %",[2]; in vivo,(0.8) %
same,"Serious TEAE: Psychiatric disorders, %",[2]; in vivo,(1.1) %
same,"Serious TEAE: Respiratory, thoracic and mediastinal disorders, %",[2]; in vivo,(0.2) %
same,"Serious TEAE: Skin and subcutaneous tissue disorders, %",[2]; in vivo,(0.1) %
same,"TEAE: Cardiac disorders, %",[2]; in vivo,(2.9) %
same,"TEAE: Congenital, familial and genetic disorders, %",[2]; in vivo,(0.1) %
same,"TEAE: Endocrine disorders, %",[2]; in vivo,(1.0) %
same,"TEAE: Gastrointestinal disorders, %",[2]; in vivo,(24.2) %
same,"TEAE: Hepatobiliary disorders, %",[2]; in vivo,(1.9) %
same,"TEAE: Immune system disorders, %",[2]; in vivo,(1.8) %
same,"TEAE: Neoplasms benign, malignant and unspecified (incl cysts and polyps), %",[2]; in vivo,(2.6) %
same,"TEAE: Nervous system disorders, %",[2]; in vivo,(29.5) %
same,"TEAE: Reproductive system and breast disorders, %",[2]; in vivo,(5.9) %
same,"TEAE: Social circumstances, %",[2]; in vivo,(0.3) %
same,"TEAE: Vascular disorders, %",[2]; in vivo,(6.0) %
